From paper PMC3796514

Legend:
[1] = target: HapRV2G (wild type functional HapR, glycine at position 39), N-terminal 6X His fusion (Vibrio cholerae); assay: SEC
[2] = target: HapRV2G-E117K (HapR natural variant with lysine at position 117 in the dimerization domain), N-terminal 6X His fusion (Vibrio cholerae); assay: SEC

## HapRV2G (wild type functional HapR, glycine at position 39), N-terminal 6X His fusion (natural protein)
[1]
  stoichiometry N: 2

## HapRV2G-E117K (HapR natural variant with lysine at position 117 in the dimerization domain), N-terminal 6X His fusion (natural protein)
[2]
  stoichiometry N: 2
